The results in this text go back to publication PMC6458054 (Nature, 2017).

Assay [1] concerns the target full-length (FL) His-ASCC3 (human, UniProt Q8N3C0 1-2202). Briefly: pull-down.
The target of assay [2] is N-terminally deleted His-ASCC3 (human, UniProt Q8N3C0 401-2202). Briefly: pull-down.
N-terminally deleted His-ASCC3, sequence (Q8N3C0 401-2202, stated change not applied): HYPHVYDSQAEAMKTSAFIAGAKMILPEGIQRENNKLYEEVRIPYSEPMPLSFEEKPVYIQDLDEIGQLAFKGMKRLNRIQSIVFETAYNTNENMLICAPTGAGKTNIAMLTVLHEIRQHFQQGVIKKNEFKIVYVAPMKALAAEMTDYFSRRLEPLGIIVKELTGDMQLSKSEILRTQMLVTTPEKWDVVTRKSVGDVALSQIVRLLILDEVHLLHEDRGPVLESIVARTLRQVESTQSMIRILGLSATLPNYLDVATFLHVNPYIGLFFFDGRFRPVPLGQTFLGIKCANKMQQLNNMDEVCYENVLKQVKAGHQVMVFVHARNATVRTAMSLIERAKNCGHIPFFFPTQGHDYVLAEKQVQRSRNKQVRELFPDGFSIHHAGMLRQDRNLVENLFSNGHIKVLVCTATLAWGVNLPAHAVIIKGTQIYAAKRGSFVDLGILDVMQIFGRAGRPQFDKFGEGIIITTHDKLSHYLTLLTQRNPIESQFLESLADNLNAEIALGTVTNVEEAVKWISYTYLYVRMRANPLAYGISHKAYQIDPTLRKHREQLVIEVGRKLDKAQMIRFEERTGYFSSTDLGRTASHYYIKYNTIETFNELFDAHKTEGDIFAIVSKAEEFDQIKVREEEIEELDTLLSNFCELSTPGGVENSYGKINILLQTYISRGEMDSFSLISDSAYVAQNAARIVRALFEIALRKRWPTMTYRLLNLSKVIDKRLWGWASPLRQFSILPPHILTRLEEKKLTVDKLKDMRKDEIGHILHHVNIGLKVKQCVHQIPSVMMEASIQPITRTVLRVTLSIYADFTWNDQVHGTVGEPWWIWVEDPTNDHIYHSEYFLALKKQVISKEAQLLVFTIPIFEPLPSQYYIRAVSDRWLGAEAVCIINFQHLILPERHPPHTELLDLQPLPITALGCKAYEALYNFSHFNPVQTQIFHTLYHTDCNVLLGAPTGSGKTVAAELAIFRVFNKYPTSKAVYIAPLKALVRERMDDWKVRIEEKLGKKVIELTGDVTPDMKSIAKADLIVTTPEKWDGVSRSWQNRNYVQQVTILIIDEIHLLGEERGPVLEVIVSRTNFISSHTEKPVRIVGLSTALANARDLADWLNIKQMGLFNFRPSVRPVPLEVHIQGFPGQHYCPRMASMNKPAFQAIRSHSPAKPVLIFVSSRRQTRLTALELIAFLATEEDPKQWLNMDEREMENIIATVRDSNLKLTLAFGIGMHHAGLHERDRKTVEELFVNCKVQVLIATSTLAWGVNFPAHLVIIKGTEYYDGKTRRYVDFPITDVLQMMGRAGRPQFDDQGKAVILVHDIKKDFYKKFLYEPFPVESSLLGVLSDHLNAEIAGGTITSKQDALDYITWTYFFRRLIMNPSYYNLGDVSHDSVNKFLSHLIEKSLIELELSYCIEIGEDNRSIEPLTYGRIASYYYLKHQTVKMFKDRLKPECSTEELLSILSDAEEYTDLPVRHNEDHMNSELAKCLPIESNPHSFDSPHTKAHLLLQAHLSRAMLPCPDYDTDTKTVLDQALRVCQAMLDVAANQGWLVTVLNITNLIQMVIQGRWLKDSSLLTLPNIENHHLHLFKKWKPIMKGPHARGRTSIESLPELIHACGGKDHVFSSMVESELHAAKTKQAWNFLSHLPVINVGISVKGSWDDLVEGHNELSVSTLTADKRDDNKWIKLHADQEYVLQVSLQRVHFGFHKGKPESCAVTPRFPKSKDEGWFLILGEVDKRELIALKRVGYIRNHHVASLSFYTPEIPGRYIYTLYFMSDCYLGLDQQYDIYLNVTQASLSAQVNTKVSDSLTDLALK

full-length (FL) His-ASCC3, sequence (Q8N3C0 whole entry): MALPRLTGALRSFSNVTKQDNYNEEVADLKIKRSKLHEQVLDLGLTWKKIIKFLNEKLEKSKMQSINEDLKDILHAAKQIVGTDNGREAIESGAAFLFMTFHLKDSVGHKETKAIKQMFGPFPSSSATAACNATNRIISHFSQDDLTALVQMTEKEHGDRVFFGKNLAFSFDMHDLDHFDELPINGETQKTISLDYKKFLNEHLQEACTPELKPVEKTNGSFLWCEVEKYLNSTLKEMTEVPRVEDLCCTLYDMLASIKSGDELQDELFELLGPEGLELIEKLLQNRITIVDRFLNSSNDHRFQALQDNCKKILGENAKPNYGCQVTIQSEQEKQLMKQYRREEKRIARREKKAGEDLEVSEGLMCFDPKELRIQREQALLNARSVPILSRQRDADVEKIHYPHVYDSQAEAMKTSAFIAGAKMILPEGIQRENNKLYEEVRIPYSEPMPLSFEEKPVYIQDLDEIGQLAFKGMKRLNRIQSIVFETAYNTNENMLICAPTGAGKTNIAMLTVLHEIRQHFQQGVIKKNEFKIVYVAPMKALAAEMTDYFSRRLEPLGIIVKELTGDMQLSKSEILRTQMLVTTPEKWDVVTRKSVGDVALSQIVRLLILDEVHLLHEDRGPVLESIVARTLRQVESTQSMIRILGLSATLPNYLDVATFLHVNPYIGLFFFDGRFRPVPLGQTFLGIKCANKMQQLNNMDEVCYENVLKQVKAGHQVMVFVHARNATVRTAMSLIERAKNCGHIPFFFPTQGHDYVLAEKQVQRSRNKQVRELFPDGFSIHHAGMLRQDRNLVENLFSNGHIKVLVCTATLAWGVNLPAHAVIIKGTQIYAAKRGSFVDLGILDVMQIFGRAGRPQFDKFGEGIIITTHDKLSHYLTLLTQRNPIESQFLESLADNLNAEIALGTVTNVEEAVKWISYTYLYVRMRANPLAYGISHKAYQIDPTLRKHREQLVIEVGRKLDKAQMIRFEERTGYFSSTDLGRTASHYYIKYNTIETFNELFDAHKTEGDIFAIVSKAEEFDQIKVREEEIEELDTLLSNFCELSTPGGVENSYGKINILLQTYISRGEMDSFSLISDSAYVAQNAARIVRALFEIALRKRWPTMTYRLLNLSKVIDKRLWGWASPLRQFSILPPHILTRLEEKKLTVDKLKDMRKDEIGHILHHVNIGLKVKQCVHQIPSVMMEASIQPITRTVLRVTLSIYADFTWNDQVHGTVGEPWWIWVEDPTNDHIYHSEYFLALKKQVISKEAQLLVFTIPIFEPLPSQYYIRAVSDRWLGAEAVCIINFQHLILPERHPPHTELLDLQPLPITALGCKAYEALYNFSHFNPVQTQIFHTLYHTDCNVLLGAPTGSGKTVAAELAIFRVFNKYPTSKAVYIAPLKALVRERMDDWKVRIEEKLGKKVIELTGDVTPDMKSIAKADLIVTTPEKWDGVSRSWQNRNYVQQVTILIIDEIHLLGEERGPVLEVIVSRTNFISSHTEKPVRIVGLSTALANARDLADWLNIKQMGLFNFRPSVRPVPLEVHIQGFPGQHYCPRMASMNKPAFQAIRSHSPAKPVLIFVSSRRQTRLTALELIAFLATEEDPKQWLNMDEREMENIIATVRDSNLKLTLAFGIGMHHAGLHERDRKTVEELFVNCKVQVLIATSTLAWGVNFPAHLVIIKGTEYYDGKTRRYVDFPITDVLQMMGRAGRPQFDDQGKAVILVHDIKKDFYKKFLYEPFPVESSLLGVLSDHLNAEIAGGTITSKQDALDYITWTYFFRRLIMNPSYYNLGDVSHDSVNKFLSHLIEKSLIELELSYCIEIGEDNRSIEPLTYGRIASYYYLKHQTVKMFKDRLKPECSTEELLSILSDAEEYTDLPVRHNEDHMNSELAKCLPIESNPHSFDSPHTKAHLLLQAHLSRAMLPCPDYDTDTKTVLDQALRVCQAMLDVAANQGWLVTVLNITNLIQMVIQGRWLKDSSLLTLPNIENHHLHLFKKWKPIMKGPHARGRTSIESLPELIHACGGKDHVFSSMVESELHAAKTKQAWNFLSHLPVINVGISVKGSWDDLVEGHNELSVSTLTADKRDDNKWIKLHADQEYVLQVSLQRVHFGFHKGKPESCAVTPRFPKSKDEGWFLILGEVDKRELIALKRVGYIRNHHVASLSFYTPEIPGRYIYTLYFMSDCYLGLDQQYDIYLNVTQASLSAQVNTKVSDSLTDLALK

B1: Flag-ASCC2 (natural protein)
chain: MPALPLDQLQITHKDPKTGKLRTSPALHPEQKADRYFVLYKPPPKDNIPALVEEYLERATFVANDLDWLLALPHDKFWCQVIFDETLQKCLDSYLRYVPRKFDEGVASAPEVVDMQKRLHRSVFLTFLRMSTHKESKDHFISPSAFGEILYNNFLFDIPKILDLCVLFGKGNSPLLQKMIGNIFTQQPSYYSDLDETLPTILQVFSNILQHCGLQGDGANTTPQKLEERGRLTPSDMPLLELKDIVLYLCDTCTTLWAFLDIFPLACQTFQKHDFCYRLASFYEAAIPEMESAIKKRRLEDSKLLGDLWQRLSHSRKKLMEIFHIILNQICLLPILESSCDNIQGFIEEFLQIFSSLLQEKRFLRDYDALFPVAEDISLLQQASSVLDETRTAYILQAVESAWEGVDRRKATDAKDPSVIEEPNGEPNGVTVTAEAVSQASSHPENSEEEECMGAAAAVGPAMCGVELDSLISQVKDLLPDLGEGFILACLEYYHYDPEQVINNILEERLAPTLSQLDRNLDREMKPDPTPLLTSRHNVFQNDEFDVFSRDSVDLSRVHKGKSTRKEENTRSLLNDKRAVAAQRQRYEQYSVVVEEVPLQPGESLPYHSVYYEDEYDDTYDGNQVGANDADSDDELISRRPFTIPQVLRTKVPREGQEEDDDDEEDDADEEAPKPDHFVQDPAVLREKAEARRMAFLAKKGYRHDSSTAVAGSPRGHGQSRETTQERRKKEANKATRANHNRRTMADRKRSKGMIPS
As to B1, the binding result in assay [1] was “binds”.

B2: Flag-ALKBH3 (enzyme)
chain: MEEKRRRARVQGAWAAPVKSQAIAQPATTAKSHLHQKPGQTWKNKEHHLSDREFVFKEPQQVVRRAPEPRVIDREGVYEISLSPTGVSRVCLYPGFVDVKEADWILEQLCQDVPWKQRTGIREDITYQQPRLTAWYGELPYTYSRITMEPNPHWHPVLRTLKNRIEENTGHTFNSLLCNLYRNEKDSVDWHSDDEPSLGRCPIIASLSFGATRTFEMRKKPPPEENGDYTYVERVKIPLDHGTLLIMEGATQADWQHRVPKEYHSREPRVNLTFRTVYPDPRGAPW
In the case of B2, the binding result in assay [2] was “binds”.
